The supplement of paper PMC10065799, “High-throughput profiling of sequence recognition by tyrosine kinases and SH2 domains using bacterial peptide display” (eLife, 2023)

Columns and labels:
Hck = Hck (UniProt P08631); assay: phosphorylation enrichment, bacterial display (enrichment ratio); higher = better substrate or ligand; peptides without Tyr show the background
Fer (mouse) = assay: as above
AncSZ = assay: as above
c-Src = assay: as above
FGFR1 = FGFR1 (UniProt P11362); assay: as above
Fyn = Fyn (UniProt P06241); assay: as above
c-Abl (mouse) = assay: as above
EPHB1 = EPHB1 (UniProt P54762); assay: as above
FGFR3 = FGFR3 (UniProt P22607); assay: as above
MERTK = MERTK (UniProt Q12866); assay: as above
Fes = Fes (UniProt P07332); assay: as above
Jak2 = Jak2 (UniProt O60674); assay: as above
EPHB2 = EPHB2 (UniProt P29323); assay: as above
c-Src SH2 = assay: SH2 binding enrichment of the phosphorylated peptide, bacterial display (enrichment ratio); higher = better substrate or ligand; peptides without Tyr show the background
SHP2-C SH2 = assay: as above
Grb2 SH2 = Grb2 SH2 (UniProt P62993); assay: as above
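Throughout, for SH2 binding enrichment of the phosphorylated peptide, bacterial display: peptide library displayed on the E. coli surface as eCPX fusions, selected cells deep-sequenced, score is each peptide's frequency after selection divided by its frequency in the input.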
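Throughout, for phosphorylation enrichment, bacterial display: 11-residue human phosphosite peptides and single-mutation variants displayed on the E. coli surface, counted by deep sequencing, each peptide's frequency after selection divided by its frequency in the unselected input library; frequency after pTyr selection over input frequency; kinase dosed for 20-30% of maximal phosphorylation in three min.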

Chain of MERTK (Q12866 whole entry, looked up): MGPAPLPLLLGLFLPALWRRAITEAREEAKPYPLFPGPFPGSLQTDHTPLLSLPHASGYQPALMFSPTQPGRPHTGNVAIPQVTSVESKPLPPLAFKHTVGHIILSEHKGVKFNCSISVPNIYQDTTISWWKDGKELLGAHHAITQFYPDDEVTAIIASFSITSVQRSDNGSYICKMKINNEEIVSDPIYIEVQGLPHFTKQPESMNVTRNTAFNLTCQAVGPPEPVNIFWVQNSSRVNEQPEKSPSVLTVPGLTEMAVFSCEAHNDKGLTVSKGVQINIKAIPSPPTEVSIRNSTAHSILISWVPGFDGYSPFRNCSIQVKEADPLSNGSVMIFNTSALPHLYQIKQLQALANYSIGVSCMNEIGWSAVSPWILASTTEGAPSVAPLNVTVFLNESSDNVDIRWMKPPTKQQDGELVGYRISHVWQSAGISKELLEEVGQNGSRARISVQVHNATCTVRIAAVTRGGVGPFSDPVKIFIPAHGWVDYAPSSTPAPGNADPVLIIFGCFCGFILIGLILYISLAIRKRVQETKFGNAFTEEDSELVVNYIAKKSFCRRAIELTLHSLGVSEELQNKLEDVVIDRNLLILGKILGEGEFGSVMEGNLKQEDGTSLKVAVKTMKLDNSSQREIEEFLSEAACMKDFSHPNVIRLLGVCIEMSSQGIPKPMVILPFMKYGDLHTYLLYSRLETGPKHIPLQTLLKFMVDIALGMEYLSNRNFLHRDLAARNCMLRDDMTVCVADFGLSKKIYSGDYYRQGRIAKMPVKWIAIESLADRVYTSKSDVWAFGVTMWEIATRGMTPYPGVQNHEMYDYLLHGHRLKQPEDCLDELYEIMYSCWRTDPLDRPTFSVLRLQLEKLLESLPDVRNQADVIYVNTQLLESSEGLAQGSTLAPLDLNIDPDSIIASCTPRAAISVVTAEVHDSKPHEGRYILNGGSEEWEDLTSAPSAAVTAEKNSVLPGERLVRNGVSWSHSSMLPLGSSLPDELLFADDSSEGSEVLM
Chain of Fyn (P06241 whole entry, looked up): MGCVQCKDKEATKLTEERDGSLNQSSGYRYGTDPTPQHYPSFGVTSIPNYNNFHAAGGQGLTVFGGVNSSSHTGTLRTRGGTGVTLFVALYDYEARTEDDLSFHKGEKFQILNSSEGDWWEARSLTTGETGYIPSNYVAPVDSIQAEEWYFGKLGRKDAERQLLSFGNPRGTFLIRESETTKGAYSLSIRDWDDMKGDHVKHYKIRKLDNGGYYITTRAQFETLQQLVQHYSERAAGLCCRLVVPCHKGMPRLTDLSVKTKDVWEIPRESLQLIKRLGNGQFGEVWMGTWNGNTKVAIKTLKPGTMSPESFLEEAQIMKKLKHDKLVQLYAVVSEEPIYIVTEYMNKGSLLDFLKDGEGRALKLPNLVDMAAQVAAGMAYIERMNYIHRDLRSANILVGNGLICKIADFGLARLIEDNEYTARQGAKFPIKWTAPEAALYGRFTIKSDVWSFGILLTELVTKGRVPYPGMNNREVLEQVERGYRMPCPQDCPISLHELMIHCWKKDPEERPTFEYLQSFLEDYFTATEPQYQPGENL
Chain of Grb2 SH2 (P62993 whole entry, looked up, the tested form may be a part): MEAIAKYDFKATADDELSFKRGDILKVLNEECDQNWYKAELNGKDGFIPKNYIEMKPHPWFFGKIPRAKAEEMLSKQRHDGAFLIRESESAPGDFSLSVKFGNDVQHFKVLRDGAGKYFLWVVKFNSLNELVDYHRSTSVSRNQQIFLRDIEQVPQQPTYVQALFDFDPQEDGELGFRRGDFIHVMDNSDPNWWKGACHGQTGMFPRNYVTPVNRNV
Chain of Hck (P08631 whole entry, looked up): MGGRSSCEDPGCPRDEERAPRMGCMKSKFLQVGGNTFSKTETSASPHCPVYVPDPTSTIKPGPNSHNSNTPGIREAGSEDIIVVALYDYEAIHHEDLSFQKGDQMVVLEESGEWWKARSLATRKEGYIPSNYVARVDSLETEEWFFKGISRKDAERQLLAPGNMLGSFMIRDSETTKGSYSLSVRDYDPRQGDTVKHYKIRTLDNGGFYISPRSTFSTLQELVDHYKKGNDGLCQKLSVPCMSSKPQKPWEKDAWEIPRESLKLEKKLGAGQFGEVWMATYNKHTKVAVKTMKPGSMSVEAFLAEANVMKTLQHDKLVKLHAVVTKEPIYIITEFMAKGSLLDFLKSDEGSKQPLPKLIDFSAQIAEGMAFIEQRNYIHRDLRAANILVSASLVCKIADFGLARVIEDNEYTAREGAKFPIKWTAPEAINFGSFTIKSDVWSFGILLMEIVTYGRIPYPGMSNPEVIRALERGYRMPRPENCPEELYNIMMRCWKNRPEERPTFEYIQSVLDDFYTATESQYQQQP
Chain of FGFR1 (P11362 whole entry, looked up): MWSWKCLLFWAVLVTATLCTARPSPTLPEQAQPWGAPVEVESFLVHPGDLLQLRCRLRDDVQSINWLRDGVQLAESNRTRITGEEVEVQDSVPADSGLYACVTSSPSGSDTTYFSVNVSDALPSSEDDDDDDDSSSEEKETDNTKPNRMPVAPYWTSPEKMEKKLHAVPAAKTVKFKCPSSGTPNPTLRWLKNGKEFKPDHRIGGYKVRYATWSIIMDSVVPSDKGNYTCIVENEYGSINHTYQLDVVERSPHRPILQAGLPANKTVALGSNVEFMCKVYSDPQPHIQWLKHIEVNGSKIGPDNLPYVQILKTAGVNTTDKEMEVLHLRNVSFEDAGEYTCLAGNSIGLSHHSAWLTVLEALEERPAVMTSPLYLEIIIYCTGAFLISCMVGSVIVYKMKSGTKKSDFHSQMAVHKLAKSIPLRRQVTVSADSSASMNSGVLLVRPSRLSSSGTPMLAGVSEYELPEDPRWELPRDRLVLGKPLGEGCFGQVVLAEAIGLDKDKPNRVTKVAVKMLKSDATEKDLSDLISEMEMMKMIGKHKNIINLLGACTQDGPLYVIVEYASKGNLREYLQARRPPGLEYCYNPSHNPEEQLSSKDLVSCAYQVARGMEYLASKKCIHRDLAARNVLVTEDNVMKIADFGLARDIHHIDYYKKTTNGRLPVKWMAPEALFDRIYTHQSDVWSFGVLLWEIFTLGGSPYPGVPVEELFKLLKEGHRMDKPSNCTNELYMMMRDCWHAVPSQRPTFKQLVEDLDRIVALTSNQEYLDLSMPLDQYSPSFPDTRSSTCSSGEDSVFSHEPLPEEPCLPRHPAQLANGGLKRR
Chain of EPHB1 (P54762 whole entry, looked up): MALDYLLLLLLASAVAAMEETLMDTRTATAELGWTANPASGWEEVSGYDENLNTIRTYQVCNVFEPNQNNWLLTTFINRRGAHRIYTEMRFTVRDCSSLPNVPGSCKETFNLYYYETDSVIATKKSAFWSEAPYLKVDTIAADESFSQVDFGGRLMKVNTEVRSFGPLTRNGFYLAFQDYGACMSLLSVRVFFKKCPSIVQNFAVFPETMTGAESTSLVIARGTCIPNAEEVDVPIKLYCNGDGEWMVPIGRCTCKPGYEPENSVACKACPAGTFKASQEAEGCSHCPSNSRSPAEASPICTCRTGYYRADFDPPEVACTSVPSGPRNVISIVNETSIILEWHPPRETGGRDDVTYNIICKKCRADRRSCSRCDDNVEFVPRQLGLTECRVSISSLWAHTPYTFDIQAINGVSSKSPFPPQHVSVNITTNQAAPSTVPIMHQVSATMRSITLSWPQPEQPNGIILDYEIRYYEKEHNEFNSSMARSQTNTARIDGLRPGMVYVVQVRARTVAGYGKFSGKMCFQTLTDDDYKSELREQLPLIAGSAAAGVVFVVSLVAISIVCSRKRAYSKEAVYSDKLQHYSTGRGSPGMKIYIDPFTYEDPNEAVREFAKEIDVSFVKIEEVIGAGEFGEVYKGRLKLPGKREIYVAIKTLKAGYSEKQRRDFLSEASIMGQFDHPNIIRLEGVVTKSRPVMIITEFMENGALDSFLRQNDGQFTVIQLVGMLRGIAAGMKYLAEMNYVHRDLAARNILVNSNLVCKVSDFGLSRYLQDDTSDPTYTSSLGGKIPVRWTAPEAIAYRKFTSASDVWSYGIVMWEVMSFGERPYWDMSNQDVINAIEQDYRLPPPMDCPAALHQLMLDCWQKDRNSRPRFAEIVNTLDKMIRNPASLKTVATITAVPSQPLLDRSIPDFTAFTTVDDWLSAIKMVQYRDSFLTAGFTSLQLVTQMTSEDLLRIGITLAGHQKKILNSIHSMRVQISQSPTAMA
Chain of FGFR3 (P22607 whole entry, looked up): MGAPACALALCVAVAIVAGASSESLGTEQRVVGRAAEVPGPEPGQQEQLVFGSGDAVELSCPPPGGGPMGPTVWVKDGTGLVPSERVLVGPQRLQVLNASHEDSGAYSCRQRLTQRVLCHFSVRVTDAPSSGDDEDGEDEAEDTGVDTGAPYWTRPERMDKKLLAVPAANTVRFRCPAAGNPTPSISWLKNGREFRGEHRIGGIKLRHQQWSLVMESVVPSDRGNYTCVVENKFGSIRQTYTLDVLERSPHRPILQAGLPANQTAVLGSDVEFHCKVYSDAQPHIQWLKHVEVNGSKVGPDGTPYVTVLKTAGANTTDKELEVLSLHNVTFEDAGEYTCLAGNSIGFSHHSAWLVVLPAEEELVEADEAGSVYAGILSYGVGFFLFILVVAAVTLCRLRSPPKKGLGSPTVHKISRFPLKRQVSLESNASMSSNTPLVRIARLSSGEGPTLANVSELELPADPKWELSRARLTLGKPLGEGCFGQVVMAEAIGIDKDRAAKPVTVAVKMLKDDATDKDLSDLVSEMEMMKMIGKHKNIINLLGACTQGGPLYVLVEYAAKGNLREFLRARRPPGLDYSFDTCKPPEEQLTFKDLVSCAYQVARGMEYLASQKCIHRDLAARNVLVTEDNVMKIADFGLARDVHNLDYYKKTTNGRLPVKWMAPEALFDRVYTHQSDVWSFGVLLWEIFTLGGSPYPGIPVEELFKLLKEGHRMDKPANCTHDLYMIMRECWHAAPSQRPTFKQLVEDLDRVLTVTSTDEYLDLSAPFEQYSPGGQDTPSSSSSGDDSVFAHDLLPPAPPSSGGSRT

Sequence | phosphorylation enrichment (Hck) | phosphorylation enrichment (Fer (mouse)) | phosphorylation enrichment (AncSZ) | phosphorylation enrichment (c-Src) | phosphorylation enrichment (FGFR1) | phosphorylation enrichment (Fyn) | phosphorylation enrichment (c-Abl (mouse)) | phosphorylation enrichment (EPHB1) | phosphorylation enrichment (FGFR3) | phosphorylation enrichment (MERTK) | phosphorylation enrichment (Fes) | phosphorylation enrichment (Jak2) | phosphorylation enrichment (EPHB2) | SH2 binding enrichment (c-Src SH2) | SH2 binding enrichment (SHP2-C SH2) | SH2 binding enrichment (Grb2 SH2)
ANKNVYEVEPT [MEGF10_Y1075_R1072K] | 0.798 | 0.36 | 0.823 | 2.9 | 0.383 | 4.42 | 0.6 | 0.516 | 0.7 | 1.04 | 0.938 | 0.848 | 0.492 | 1.59 | 0.941 | 0.821
APGNAYGDAGY [SYP_Y250_D248N] | 0.474 | 0.452 | 0.731 | 0.497 | 0.428 | 0.418 | 0.607 | 0.515 | 0.512 | 0.423 | 0.77 | 0.851 | 0.451 | 0.441 | 0.52 | 0.681
APRKVYDTQDD [ZFPL1_Y215_R218Q] | 0.586 | 0.67 | 0.993 | 0.479 | 0.549 | 0.495 | 0.766 | 0.692 | 0.653 | 0.466 | 1.09 | 0.808 | 0.685 | 0.501 | 0.671 | 0.716
AQVDTYCRHNF [HLA-DRB1_Y107_A103Q_YF] | 0.446 | 0.628 | 0.676 | 0.434 | 0.668 | 0.433 | 0.59 | 0.369 | 0.472 | 0.528 | 0.959 | 0.673 | 0.479 | 0.621 | 0.834 | 1.06
ARLDEYIAIAK [RCOR3_Y46_K42R] | 0.447 | 0.428 | 0.649 | 0.458 | 0.446 | 0.391 | 0.516 | 0.442 | 0.562 | 0.598 | 0.621 | 0.683 | 0.51 | 0.505 | 0.702 | 0.664
ASENVYVNIAH [CTSC_Y150] | 1.94 | 3.79 | 0.881 | 2.21 | 3.4 | 1.99 | 0.8 | 1.92 | 2.05 | 0.826 | 0.827 | 0.986 | 0.924 | 2.4 | 5.86 | 6.93
ASRKFYAMKIL [AKT3_Y174_G171R_YF] | 0.417 | 0.362 | 0.725 | 0.464 | 0.578 | 0.45 | 0.441 | 0.459 | 0.518 | 0.441 | 0.617 | 0.7 | 0.428 | 0.543 | 0.679 | 0.817
ASTDFNKRGDF [PDHA1_Y243_Y243N_YF] | 0.462 | 0.347 | 0.511 | 0.44 | 0.373 | 0.365 | 0.521 | 0.297 | 0.378 | 0.418 | 0.585 | 0.53 | 0.341 | 0.612 | 0.706 | 0.705
ATFRGYDSDNP [MMUT_Y146_H143Y_YF] | 0.528 | 0.553 | 0.904 | 0.425 | 0.571 | 0.51 | 0.666 | 0.424 | 0.531 | 0.373 | 0.896 | 0.811 | 0.513 | 0.572 | 0.718 | 1.01
ATHSGYRLNDF [CLDN14_Y233_YF] | 0.391 | 0.361 | 0.587 | 0.453 | 0.322 | 0.419 | 0.906 | 0.472 | 0.538 | 0.42 | 0.601 | 0.558 | 0.514 | 0.421 | 0.542 | 1.04
ATYRGYDSDNP [MMUT_Y146_H143Y] | 0.444 | 0.409 | 0.742 | 0.626 | 0.453 | 0.528 | 0.476 | 0.427 | 0.543 | 0.365 | 0.751 | 0.658 | 0.431 | 0.526 | 0.562 | 0.862
AVEDQYYRVDC [FHL1_Y207_C209R] | 0.908 | 0.718 | 3.59 | 1.6 | 8.7 | 0.982 | 0.844 | 0.831 | 6.95 | 0.622 | 1.46 | 1.87 | 0.701 | 0.724 | 0.92 | 0.949
CEAMEYQESKQ [BTK_Y511_L512Q] | 0.705 | 0.609 | 1.57 | 0.629 | 0.723 | 0.63 | 0.765 | 0.76 | 1.08 | 0.589 | 1.48 | 1.19 | 0.557 | 0.437 | 0.557 | 0.843
CEDGNYSPEIS [PTDSS1_Y424_T423N] | 0.668 | 0.461 | 1.18 | 0.618 | 0.643 | 0.458 | 0.785 | 0.612 | 0.637 | 0.486 | 1.06 | 0.975 | 0.871 | 0.747 | 0.761 | 1.01
CEETFYTMKVN [MASP2_Y401] | 0.756 | 0.738 | 1.48 | 1.41 | 0.546 | 1.04 | 0.9 | 0.766 | 0.935 | 0.529 | 1.4 | 1.51 | 0.625 | 0.522 | 0.788 | 0.842
CENNRYGMGTS [PDHA1_Y227] | 0.555 | 0.538 | 0.991 | 0.517 | 0.548 | 0.518 | 0.715 | 0.686 | 0.726 | 0.397 | 1.36 | 0.999 | 0.606 | 0.44 | 0.6 | 0.77
CHRQLYHKCTH [F12_Y58_Y53C] | 0.471 | 0.491 | 0.497 | 0.457 | 0.494 | 0.402 | 0.599 | 0.447 | 0.576 | 0.543 | 0.796 | 0.667 | 0.461 | 1.5 | 1.3 | 1.53

Sequence | phosphorylation enrichment (Hck) | phosphorylation enrichment (Fer (mouse)) | phosphorylation enrichment (AncSZ) | phosphorylation enrichment (c-Src) | phosphorylation enrichment (FGFR1) | phosphorylation enrichment (Fyn) | phosphorylation enrichment (c-Abl (mouse)) | phosphorylation enrichment (EPHB1) | phosphorylation enrichment (FGFR3) | phosphorylation enrichment (MERTK) | phosphorylation enrichment (Fes) | phosphorylation enrichment (Jak2) | phosphorylation enrichment (EPHB2) | SH2 binding enrichment (c-Src SH2) | SH2 binding enrichment (SHP2-C SH2) | SH2 binding enrichment (Grb2 SH2)
CLSHCYFSQIR [MCM3AP_Y873_L870S] | 0.363 | 0.388 | 0.727 | 0.432 | 0.573 | 0.354 | 0.484 | 0.41 | 0.607 | 0.485 | 0.758 | 0.623 | 0.497 | 1.23 | 1.15 | 1.22
CQAHGYFCQLI [STK11_Y156] | 0.436 | 0.402 | 0.873 | 0.428 | 0.479 | 0.405 | 0.514 | 0.413 | 0.609 | 0.407 | 0.836 | 0.751 | 0.546 | 0.984 | 1.17 | 1.2
CQKRKYIEIDS [SDAD1_Y580_S575C] | 0.48 | 0.431 | 0.657 | 0.479 | 0.55 | 0.485 | 0.446 | 0.513 | 0.6 | 0.38 | 0.814 | 0.616 | 0.505 | 2.53 | 0.892 | 1.03
CRIELYRVVES [IGFBP1_Y181] | 0.574 | 0.537 | 1.2 | 0.437 | 0.545 | 0.476 | 0.759 | 0.989 | 0.887 | 0.46 | 1.29 | 1.11 | 0.68 | 0.538 | 0.653 | 0.819
CRWKRYQCSHD [GDPD5_Y30_R32C] | 0.529 | 0.425 | 0.559 | 0.448 | 0.488 | 0.52 | 0.41 | 0.458 | 0.562 | 0.384 | 0.666 | 0.612 | 0.493 | 0.494 | 0.583 | 0.656
CSPLLYKVIMS [OR8D4_Y132_R133K] | 0.566 | 0.611 | 1.06 | 0.445 | 0.518 | 0.507 | 0.955 | 0.693 | 0.819 | 0.6 | 1.21 | 0.989 | 0.648 | 0.488 | 0.635 | 0.882
CTLTHYKSAVK [ASNS_Y555_R550C] | 0.518 | 0.51 | 0.807 | 0.408 | 0.514 | 0.387 | 0.529 | 0.564 | 0.529 | 0.428 | 0.749 | 0.689 | 0.431 | 0.585 | 0.682 | 0.942
CTSIHYNYMCN [TP53_Y234_T231S] | 0.514 | 0.676 | 0.842 | 0.5 | 0.67 | 0.42 | 0.535 | 0.99 | 0.591 | 0.448 | 0.805 | 0.733 | 0.63 | 6.03 | 2.73 | 1.2
CTTIHKNYMCN [TP53_Y234_Y234K] | 0.409 | 0.406 | 0.733 | 0.404 | 0.499 | 0.395 | 0.603 | 0.515 | 0.56 | 0.484 | 0.792 | 0.702 | 0.503 | 0.866 | 1.16 | 1.05
CTTIHSNFMCN [TP53_Y234_Y234S_YF] | 0.43 | 0.429 | 0.695 | 0.454 | 0.508 | 0.416 | 0.507 | 0.448 | 0.55 | 0.405 | 0.832 | 0.729 | 0.555 | 0.988 | 0.914 | 0.924
CTTIHYNFMCD [TP53_Y234_N239D_YF] | 0.481 | 0.49 | 0.985 | 0.538 | 0.399 | 0.442 | 0.768 | 0.545 | 0.674 | 0.424 | 1.11 | 1.03 | 0.499 | 3.31 | 1.85 | 1.74
CTTIHYNFMCH [TP53_Y234_N239H_YF] | 0.441 | 0.478 | 0.866 | 0.471 | 0.507 | 0.533 | 0.543 | 0.558 | 0.552 | 0.444 | 0.97 | 0.75 | 0.547 | 1.75 | 1.92 | 1.73
CTTIHYNFMSN [TP53_Y234_C238S_YF] | 0.545 | 0.562 | 1.12 | 0.483 | 0.561 | 0.437 | 0.833 | 0.621 | 0.745 | 0.527 | 1.24 | 1.07 | 0.58 | 0.743 | 0.835 | 0.851
CTTIHYNYMCN [TP53_Y234] | 0.482 | 0.557 | 0.853 | 0.469 | 0.539 | 0.453 | 0.471 | 0.762 | 0.692 | 0.485 | 0.903 | 0.661 | 0.696 | 4.14 | 2.41 | 1.25
CTTIQYNYMCN [TP53_Y234_H233Q] | 0.551 | 0.445 | 0.927 | 0.441 | 0.556 | 0.555 | 0.493 | 0.614 | 0.692 | 0.482 | 0.955 | 0.751 | 0.671 | 4.11 | 2.31 | 1.37
CYVYYYSYLLK [PTEN_Y178_R173C] | 0.949 | 0.669 | 1.5 | 1.47 | 1.8 | 0.734 | 1.66 | 1.15 | 1.79 | 1.17 | 1.81 | 1.53 | 0.792 | 0.68 | 0.543 | 0.864
